As a reminder, the stoichiometry N is the number of molecules, sites or subunits per partner or assembly.

For experiment [1], the target named is XfYgiT, antitoxin of the toxin-antitoxin system of Xylella fastidiosa subsp. pauca strain 9a5c (Xylella fastidiosa subsp. pauca strain 9a5c). In words: AUC.
Experiment [2] shares this target. In words: SEC; […], sodium phosphate buffer ([…]. A general note: SEC sorts molecules by how far they enter the pores of the column.
Experiment [3] shares this target. In words: SEC.
Experiment [4] has the same target. In words: ITC. (In ITC the heat of successive injections is recorded.)

“XfYgiT, antitoxin of the toxin-antitoxin system of Xylella fastidiosa subsp. pauca strain 9a5c (natural protein)”: the stoichiometry N in experiment [1] and in experiment [2] was 2 each time.

On to “XfMqsR, toxin of the toxin-antitoxin system of Xylella fastidiosa subsp. pauca strain 9a5c (natural protein)”, for which the stoichiometry N (mol/mol (printed as 1:1)) in experiment [3] and in experiment [4] was 1 each time. In addition, the stoichiometry N (mol/mol (printed as 2:2)) in experiment [1] came to 1. The substance further came in with a dH in experiment [4] of -8.61 kcal/mol.
